Reference: the supplement of paper PMC10724198
± gives the standard deviation of the averaged measurements.

Each sequence was assayed on Saccharomyces cerevisiae (assay: protein stability index of tFT-peptide fusion (C-terminal peptide) (PSI (0-1 scale)); higher = more stable (slower turnover)). Details: genetic background: wild type; temperature: 30 C.
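Also: PSI is a weighted mean of sequencing reads over stability bins, variants kept only with over 10 reads, mCherry proximal and sfGFP distal, peptide attached via GGGS linker.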

Row | Sequence | protein stability index
1 | PLAPPLRPLVSP | 0.66 ± 0.076
2 | SVPLYRLSSWRN | 0.695 ± 0.021
3 | GGGCGMEPGCGP | 0.687 ± 0.062
4 | SLYRSAARHLGI | 0.754 ± 0.037
5 | PGGCQDPWAALC | 0.714 ± 0.077
6 | DCFSLVLRFTPV | 0.64 ± 0.034
7 | PPRFLPFPPLPL | 0.75493 ± 0.00067
8 | AIKTVINYRDMM | 0.608 ± 0.0024
9 | LRAHHHSAKFQY | 0.6608 ± 0.0056
10 | CCISCSVCKDGS | 0.6183 ± 0.00094
11 | GGWGGAGQWADG | 0.706 ± 0.011
12 | NIRLRRKIIINK | 0.562 ± 0.088
13 | GRVGGGVEPCFV | 0.679 ± 0.021
14 | QSVSSTGQARLS | 0.682 ± 0.033
15 | PSAPRPSPPALP | 0.855 ± 0.11
16 | RVLSCAFSTLWA | 0.711 ± 0.12
17 | FFPATVGPFSFP | 0.731 ± 0.015
18 | WCLNMLLIPSMY | 0.605 ± 0.021
19 | VLGLGVVACWAV | 0.569 ± 0.013
20 | YGSGSDGRGGPG | 0.662 ± 0.0077
21 | AVGQAGITSLVL | 0.699 ± 0.029
22 | AGGKGVGRGWGL | 0.698 ± 0.051
23 | PQPPFTHGLIPS | 0.706 ± 0.023
24 | PLSFSPSLRYPP | 0.659 ± 0.023
25 | VDSLETDVLKYL | 0.665 ± 0.011
26 | KKKKAKKIKKQK | 0.675 ± 0.059

Row | Sequence | protein stability index
27 | SYRHHPTVPSTY | 0.705 ± 0.057
28 | PTPRPTRSPPPP | 0.689 ± 0.01
29 | VYSDSCLLRKTT | 0.695 ± 0.02
30 | PSPPPSLLPTPP | 0.679 ± 0.063
31 | AWGRRGGRMKVG | 0.62 ± 0.022
32 | SPTARRLSGCIS | 0.658 ± 0.086
33 | LRPPLRPRPIPL | 0.6983 ± 0.0036
34 | DYLGGGARSEVD | 0.745 ± 0.029
35 | YLPDPVVSLAHS | 0.656 ± 0.063
36 | LMCGPARSPLTT | 0.6701 ± 0.00098
37 | GVRLSPTACSSI | 0.678 ± 0.071
38 | NKKKKETKNAQQ | 0.698 ± 0.013
39 | VLTSLVRGVFTG | 0.632 ± 0.069
40 | VPSPFIPVSPTL | 0.669 ± 0.012
41 | SPDLTRPPLPPP | 0.693 ± 0.015
42 | FRYICYSRPVMR | 0.684 ± 0.14
43 | LLLFPSSFIFFY | 0.629 ± 0.055
44 | GGPSLTRCAAFG | 0.677 ± 0.063
45 | RRLFGLGWDVKI | 0.7177 ± 0.0034
46 | INKATYTQIYKN | 0.667 ± 0.021
47 | SLALPLLPPSSP | 0.739 ± 0.05
48 | SLFMRLPLQSSF | 0.65 ± 0.041
49 | KTCENKKKALRR | 0.6923 ± 0.0016
50 | CYLKGSGSWISG | 0.718 ± 0.031
51 | EGLCFLICKERS | 0.729 ± 0.025
52 | HPPLPRPPPPPP | 0.645 ± 0.057

Row | Sequence | protein stability index
53 | GTGGIFAVAPTL | 0.737 ± 0.044
54 | NEPNIRDRSIFS | 0.688 ± 0.015
55 | LYKSEGVYTGFW | 0.729 ± 0.12
56 | EGPEGRDVVRRY | 0.644 ± 0.0096
57 | KKDTTRGENYKP | 0.767 ± 0.016
58 | RKCMSNSKNNNE | 0.669 ± 0.018
59 | TTSGCARLSHMV | 0.709 ± 0.086
60 | VSPSPIPSMPVI | 0.71 ± 0.078
61 | HLPWTGTPHATV | 0.737 ± 0.029
62 | VLLGFSDYLRVT | 0.698 ± 0.079
63 | APEAHYRGCPPH | 0.681 ± 0.018
64 | TSTGARTMFNPV | 0.646 ± 0.061
65 | SNNKSIRKGVSI | 0.79002 ± 6.2e-05
66 | TSVVLPGPAVSR | 0.732 ± 0.049
67 | PFRFLFGISLFF | 0.559 ± 0.015
68 | PRALLPPSPPSP | 0.635 ± 0.09
69 | LRFTYSFIPPSV | 0.631 ± 0.00064
70 | SLSFSLPLFSLG | 0.681 ± 0.013
71 | GGRWGGVSLGGR | 0.693 ± 0.11
72 | ILRGRDLPHGLG | 0.688 ± 0.03
73 | ADGLSRDKALIV | 0.598 ± 0.0074
74 | LKGSVGGVCHTC | 0.709 ± 0.032
75 | VNPAFRTSICHH | 0.584 ± 0.12
76 | GQKRKKKGGKEE | 0.685 ± 0.065
77 | PLPARSPPPTSV | 0.652 ± 0.026
78 | SLPAFLPAPPLF | 0.6962 ± 0.002

Row | Sequence | protein stability index
79 | LIPFAFVHPVFL | 0.62 ± 0.048
80 | TLAPVRAFVEFR | 0.656 ± 0.022
81 | CPRAPKTPISGI | 0.635 ± 0.049
82 | NIAGHLHQPVQM | 0.712 ± 0.029
83 | TVPESGSIGERK | 0.672 ± 0.03
84 | PTAESFNVRKRD | 0.723 ± 0.086
85 | SPAFSLIPCPLF | 0.742 ± 0.059
86 | LSGSTQLLYFFQ | 0.6651 ± 0.0028
87 | GGSVGGGTGWRM | 0.65 ± 0.022
88 | CISGRGIYAKAF | 0.699 ± 0.043
89 | KKKQNVKSNEVG | 0.651 ± 0.096
90 | CGVLPTPDRHHS | 0.631 ± 0.084
91 | PVPSYYHKPPPL | 0.704 ± 0.019
92 | TRNRKEWKIVIL | 0.594 ± 0.042
93 | CLGSVFYCCWNF | 0.648 ± 0.025
94 | AHPPPPQLPHPH | 0.7241 ± 0.0023
95 | GGAVSRVGEWGR | 0.7881 ± 0.0073
96 | IVGLGLENGKEI | 0.704 ± 0.042
97 | GRGGSIGEEWGG | 0.693 ± 0.021
98 | LPPRPPESLHLP | 0.724 ± 0.03
99 | KIRDECFQPVNR | 0.674 ± 0.059
100 | PFLSPPPPSTPP | 0.704 ± 0.01
101 | SSPRRRLHSLSL | 0.782 ± 0.04
